Patent US20240002531A1 (ONO PHARMACEUTICAL, published 2024)
Substitutions are numbered along the chain they refer to. Read-outs that look alike come from different tables or passages of the source. Each block holds one binder with its values, some of them ahead of it.

Columns and labels:
Experiment in all cases: peptide ELISA, OD 655 nm
[1] = molecular target: T1, F616A peptide (HER2 603-622 with F616A) (human)
T1 peptide: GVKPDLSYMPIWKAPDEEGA

[2] = molecular target: T2, E620A peptide (HER2 603-622 with E620A) (human)
T2 peptide: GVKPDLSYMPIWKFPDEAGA

[3] = molecular target: T3, G603A peptide (HER2 603-622 with G603A) (human)
T3 peptide: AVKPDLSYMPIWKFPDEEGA

[4] = molecular target: T4, P606A peptide (HER2 603-622 with P606A) (human)
T4 peptide: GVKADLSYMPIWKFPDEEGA

[5] = molecular target: T5, S609A peptide (HER2 603-622 with S609A) (human)
T5 peptide: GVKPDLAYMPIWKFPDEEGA

[6] = molecular target: T6, D607A peptide (HER2 603-622 with D607A) (human)
T6 peptide: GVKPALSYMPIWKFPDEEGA

[7] = molecular target: T7, V604A peptide (HER2 603-622 with V604A) (human)
T7 peptide: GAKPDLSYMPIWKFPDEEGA

[8] = molecular target: T8, Y610A peptide (HER2 603-622 with Y610A) (human)
T8 peptide: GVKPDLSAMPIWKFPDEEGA

[9] = molecular target: T9, P612A peptide (HER2 603-622 with P612A) (human)
T9 peptide: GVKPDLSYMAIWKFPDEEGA

[10] = molecular target: T10, HER2_604-622C peptide (NH2-VKPDLSYMPIWKFPDEEGAC-COOH) (human)
T10 construct: KLH was added for immunisation, the peptide itself was coated in the screening ELISA
T10 peptide: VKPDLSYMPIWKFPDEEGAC

[11] = molecular target: T11, P617A peptide (HER2 603-622 with P617A) (human)
T11 peptide: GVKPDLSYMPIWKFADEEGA

[12] = molecular target: T12, HER2 peptide p603-622 (amino acids 603 to 622 of human HER2) (human)
T12 construct: Synthetic peptide; also called wild-type HER2 peptide
T12 peptide: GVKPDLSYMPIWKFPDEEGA

[13] = molecular target: T13, K605A peptide (HER2 603-622 with K605A) (human)
T13 peptide: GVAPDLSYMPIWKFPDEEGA

[14] = molecular target: T14, E619A peptide (HER2 603-622 with E619A) (human)
T14 peptide: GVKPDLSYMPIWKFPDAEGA

[15] = molecular target: T15, K615A peptide (HER2 603-622 with K615A) (human)
T15 peptide: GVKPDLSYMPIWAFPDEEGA

[16] = molecular target: T16, L608A peptide (HER2 603-622 with L608A) (human)
T16 peptide: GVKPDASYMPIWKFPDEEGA

[17] = molecular target: T17, W614A peptide (HER2 603-622 with W614A) (human)
T17 peptide: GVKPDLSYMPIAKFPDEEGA

[18] = molecular target: T18, M611A peptide (HER2 603-622 with M611A) (human)
T18 peptide: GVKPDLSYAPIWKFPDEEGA

[19] = molecular target: T19, G621A peptide (HER2 603-622 with G621A) (human)
T19 peptide: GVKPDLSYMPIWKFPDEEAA

[20] = molecular target: T20, D618A peptide (HER2 603-622 with D618A) (human)
T20 peptide: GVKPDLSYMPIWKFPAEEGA

[21] = molecular target: T21, I613A peptide (HER2 603-622 with I613A) (human)
T21 construct: also called 1613A
T21 peptide: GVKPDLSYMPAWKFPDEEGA

[22] = molecular target: T1, F616A peptide (HER2 603-622 with F616A)
[23] = molecular target: T2, E620A peptide (HER2 603-622 with E620A)
[24] = molecular target: T3, G603A peptide (HER2 603-622 with G603A)
[25] = molecular target: T4, P606A peptide (HER2 603-622 with P606A)
[26] = molecular target: T5, S609A peptide (HER2 603-622 with S609A)
[27] = molecular target: T6, D607A peptide (HER2 603-622 with D607A)
[28] = molecular target: T7, V604A peptide (HER2 603-622 with V604A)
[29] = molecular target: T8, Y610A peptide (HER2 603-622 with Y610A)
[30] = molecular target: T9, P612A peptide (HER2 603-622 with P612A)
[31] = molecular target: T10, HER2_604-622C peptide …
[32] = molecular target: T11, P617A peptide (HER2 603-622 with P617A)
[33] = molecular target: T12, HER2 peptide p603-622 (amino acids 603 …)
[34] = molecular target: T13, K605A peptide (HER2 603-622 with K605A)
[35] = molecular target: T14, E619A peptide (HER2 603-622 with E619A)
[36] = molecular target: T15, K615A peptide (HER2 603-622 with K615A)
[37] = molecular target: T16, L608A peptide (HER2 603-622 with L608A)
[38] = molecular target: T17, W614A peptide (HER2 603-622 with W614A)
[39] = molecular target: T18, M611A peptide (HER2 603-622 with M611A)
[40] = molecular target: T19, G621A peptide (HER2 603-622 with G621A)
[41] = molecular target: T20, D618A peptide (HER2 603-622 with D618A)
[42] = molecular target: T21, I613A peptide (HER2 603-622 with I613A)

binding result [1]: binds
binding result [2]: binds
binding result [3]: binds
binding result [4]: binds
binding result [5]: binds
binding result [6]: binds
binding result [7]: binds
binding result [8]: binds
binding result [9]: binds
binding result [10]: binds
binding result [11]: binds
binding result [12]: binds
binding result [13]: binds
binding result [14]: binds
binding result [15]: binds
binding result [16]: binds
binding result [17]: binds
binding result [18]: binds
binding result [19]: binds
binding result [20]: binds
binding result [21]: binds
B1: H2Mab-291 antibody (antibody, mouse IgG3, V domains shown)
VH: EVQLQQSGPELVKPGASMKISCKASGYSFTGYTMNWVKQSHGKNLEWIGLINPYNGNTRYNQKFQDKATLTVDRSSSTAYMELLSLTSEDSAVYYCVKEPSDYWGQGTTLTVSS
VL: DVVMTQTPLSLPVSLGDQASISCRSSQSLVHINGNTYLHWYLQKPGQSPKLLIYKVSKRFSGVPDRFSGSGSGTDFTLKISRVEAADLGVYFCSQSTHVPPTFGGGTKLEIKR

binding result [1]: binds
binding result [2]: binds
binding result [3]: binds
binding result [4]: binds
binding result [5]: binds
binding result [6]: binds
binding result [7]: binds
binding result [8]: binds
binding result [9]: binds
binding result [10]: binds
binding result [11]: binds
binding result [12]: binds
binding result [13]: binds
binding result [14]: binds
binding result [15]: binds
binding result [16]: binds
binding result [17]: no binding (tested: 10 ug/ml)
binding result [18]: binds
binding result [19]: binds
binding result [20]: binds
binding result [21]: binds
B2: H2Mab-292 antibody (antibody, mouse IgG3, V domains shown)
VH: B1 VH with M18R, Q39K, Y54S, N57G, Q65K, R74K
VL: B1 VL with I32S, K58N, S70R, A86E, V90I

binding result [22]: no binding (tested: 10 ug/ml)
binding result [23]: binds
binding result [24]: binds
binding result [25]: binds
binding result [26]: binds
binding result [27]: binds
binding result [28]: binds
binding result [29]: binds
binding result [30]: binds
binding result [31]: binds
binding result [32]: binds
binding result [33]: binds
binding result [34]: binds
binding result [35]: binds
binding result [36]: binds
binding result [37]: binds
binding result [38]: binds
binding result [39]: binds
binding result [40]: binds
binding result [41]: binds
binding result [42]: binds
B3: H2Mab-299 antibody (antibody, mouse IgG1, kappa, V domains shown)
VH: EVQLVESGGGLVQPGGSLKLSCAASGFTFNIYGIFWVRQTPDKRLELVATIHSNGGRIYYPDSVKGRFTISRDNAKNTLYLQMSSLKSEDTAMYYCAREGGDYWGQGTSVTVSS
VL: DIVMTQSHKVMATSVGDRVSITCKASQDVGTAVAWYQQKPGQSPKLLIYWASTRHTGVPDRFTGSGSGTDFTLTINNVLSEDLVDYFCQQYRRYPLTFGAGTKLELKR
